Test results reported in the DeepSol protein solubility set.

test: soluble on expression in E. coli; label from the status in PepcDB or PDB records

Sequence | soluble on expression in E. coli
MSLDSPTASSNGDLIEEIQASSTSTDPRTFTGLSIVEDIGDVVPVTDNASPALPVSLTDADGNDVVVEDVSRILPLDLYGTYSKTIAGLGLVDNIVGRTVSSTEPALADTEVVTTGGHTLNAEAILNLHPTLVIIDHSIGPREVIDQIRAAGVATVIMSPQRSIASIGDDIRDIASVVGLPEEGEKLAERSVAEVEEASTVVDELTPEDPLKMVFLYARGTGGVFFILGDAYGGRDLIEGLGGVDMAAEKGIMDLAPANAEALAELNPDVFVMMSEGLVSTGGIDGLMERPGIAQTTAGQNQRVLALPDGQSLAFGAQTGELLLRASRELYVQGGEGHHHHHH | soluble
MDYEIENNHADSIRRGSIEVICGSMFSGKTEELLRRLRRAKIARQTVEIFKPTIDIRYDETDVVSHDKNAIASTPVDNSANILLLSSQVDVVGIDEAQFFDEGLVEVAQQLADQGVRVVIAGLDMDFRRQPFGPMPGLCAIADSVTKVHAVCVECGRLASYSFRRVQGDQQVMLGELNEYSPLCRTCYRKCSSPPQTEEIHSTILEHHHHHH | soluble
MAHHHHHHSLRGIIKRLNDDGFGILYNKILVPFSAPGDEVEVLKTEKQKRAKIATEWRLLRSSPIRVGARCKVFGKCGGCILQHINYNSQLEFKKEKLRKILGREVEIIPSPRIFGHRNRIDLAVTVNAIGFREKGKWWSVVDVEECPVFGKTSKKAIERLREYIEEEKVSTWKIREDSGFLRYMVLREGKFTGEIMVNFVTKEGELPDPTSYFDFADSIYWSINRSKSDVSYGDIEKYWGKEFIMEELDGVKYLIHPNSFFQTNSYQAVNLVKTVEKFVEGEKVVDMYSGVGTFGVYLAKKGMKVVGFDSNAFAIEMANKNAEINNVEAEFFVASDREVDIKGFDTVIVDPPRAGLHPKLVKRLNDHGPETIVYVSCNPKTFKVNIEQLNNYIIEELIALDMFPHTPHIELVGKLRRLVEG | soluble
MSVQLKCDAVNCVYNRSHLCSAEEIEVQGGETTGGDATFCGTFSSKSLGNFVSSLGNMNYSGSLKQAVSAEPIMDPKVHCNAVNCTYNDQRYCHADQVEIRNEVSHTAEETECQTFYPKMSLEHHHHHH | not soluble
MTNQKQTTHFGFKSVDWNEKEKKVAEVFHSVAKNYDRMNDLMSLGIHHLWKRYTIELSHVRPGQSVLDLAGGSGDLTRLLLQKVGDSGQVILADINAAMLHVGRDRLLDEGLFKNIRYVQGNAQCLPFADNSFHCITMGFGLRNVTDKDEALQSMYRVCKPGGKLMVLEFSTPVFPGLKPVYDWYSFNILPKIGKFVANDEASYQYLAESIRMHPDQETLKAMIERVGFEDCHYHNLSGGIVALHIAYKYLEHHHHHH | not soluble
MQCFNTIFRLFTDMDEDNEIGLPQKGINQIIKEVVPEMRIANESRDMINACCVEFVKHIAREAQRIASQDQRKTIYHEHVQKALQNLGFTPDYLEAADSVLDACKVEAEKKLRRKNSRLEKCGIPEEKLYEMQQELIQKARQQEIEQQLAHQQAQAAAVAAANAQMFGGPSEGSLAPTDDDYDN | soluble
MSEANSNSEFQTFIEQENQKAAIQAAISKLTETCWDKCVGKPGSKLDRAESECIANCAERFLDSSSFIMQRLMKKQ | soluble
APRTLYDKIWDDHVVHQSEDGTCLLYIDRHLVHEVTSPQAFEGLRMTGRKVRAPEKTIAVPDHNVPTTEGRDTKIDNEESRIQVEALDKNARDFGINYYPVSDIRQGIVHIVGPEQGWTLPGMTVVCGDSHTATHGAFGALAHGIGTSEVEHVLATQTLIQKKSKN | not soluble
MSLNFPGSSSLLIVGASTRAAACSAVRAGFQPVCADQFADRDLRAVSEVVIKIDEHCHWLEEILKREPQNWIYTGALENRPEVINAINQRHTLLGNAEESLKKVRDPFFLQDMLVDQPIAISPCLPVDTQTPPRELWLRKPRLSAAGQGISFADSHTTDPTDSTQYYLQQFQPGIPLSALYLACDDCCVLIGTAVQFIGNRALHATGFQFCGGMTLPSMPPEWRHALGKLGHNIARGCHLRGLFGCDLIWNPDGQPGLWLTEVNPRYTALTELFELQYCLPLLRWHFAACRSCDASSAVAGTLADELIQLLKTKEKRTLSTVSKGIMYAPTDLTTPDLPWESSPRQVAWQIPTIADVPDRGTRIPAGTPVCTLYGTGDDQGECLLSMADQILRCQGQIQPELPRDLSRNEVRNMLWPRKESEKLNFSGFFSSRNVSGSFLEDEGHHHHHH | soluble
MPYLLYHHFDPTFDHQNLKPGLAVGKGKVDHYNLGYVQNVVKGQVLAEFIPIDDTDDPVIDRNHIFEEPLLPVGPNCKVDPDSPLRVVADANGYVFYNDGLITVKRMLNVRRDVDFHTGNIFFVSDIAVHGDVRAGFEVQGNNILVKGIIEGATVRARGSLAVEGGARGSGGSGLLDAGDTLRVPFAESMELRAHGNILIEKFCLHSLVYAATNLVVKNRLQGGTVHCNGLVYVETHLGNPKGTPTATRINMGYDPFTMRKLDRLEQHIRELQDSLTHIAGIAGNLGSDSAPGKRLDNARKKLNRLIRQREALWAALTEDEARAALCRVVVPGTVYPGVEISIGKAFFEVEHEMNNVSFSLADGSIVVTSPAIIKKKALEHHHHHH | not soluble
MGSDKIHHHHHHMTDVNASSESRLAALEARVTELEDLNAIRRLQWAYGYYIDYNRPEEVAGLFAKDGAVVFLSGEYVGYEGVMRLYGTWFQNLFTGGRRGPVHGLLLDHFQLQDVITIAPDGQTAKGRFRGILAGGWHDDIVKDKPEGMPQQFWESGIYENDYVKEDGVWKIKRLDYMMQWQADYETGWSKTIAHLQPAAVCFPENPIGPDRLLPETEVRQTWPHRAEVPMSFAHPVLAKAFAVGEFTKLQKKWP | not soluble
MVVKIKGKVFVFGDNVNTDEIIPARYLNTSDPQELAKYCMEDARPGFGRRDDIKGSIIVAGENFGCGSSREHAPVAIKAAGISCVIAKSFARIFFRNAINIGLPIVELKEADEFEEGDIAEVDLENGVVRNLTKGKEYRIRPYPEFLMKIMEAGGWLEYCLKEVGE | soluble
MSLEISFTRVALLAAALFFVGCDQKPQPAKTHATEVTVLEGKTMGTFWRASIPGIDAKRSAELKEKIQTQLDADDQLLSTYKKDSALMRFNDSQSLSPWPVSEAMADIVTTSLRIGAKTDGAMDITVGPLVNLWGFGPEQQPVQIPSQEQIDAMKAKTGLQHLTVINQSHQQYLQKDLPDLYVDLSTVGEGYAADHLARLMEQEGISRYLVSVGGALNSRGMNGEGLPWRVAIQKPTDKENAVQAVVDINGHGISTSGSYRNYYELDGKRLSHVIDPQTGRPIEHNLVSVTVIAPTALEADAWDTGLMVLGPEKAKEVVRREGLAVYMITKEGDSFKTWMSPQFKSFLVSEKEGGSHHHHHH | soluble
MPEGKIIKALSGFYYVLDESEDSDKVIQCRGRGIFRKNKITPLVGDYVVYQAENDKEGYLMEIKERTNELIRPPICNVDQAVLVFSAVQPSFSTALLDRFLVLVEANDIQPIICITKMDLIEDQDTEDTIQAYAEDYRNIGYDVYLTSSKDQDSLADIIPHFQDKTTVFAGQSGVGKSSLLNAISPELGLRTNEISEHLGRGKHTTRHVELIHTSGGLVADTPGFSSLEFTDIEEEELGYTFPDIREKSSSCKFRGCLHLKEPKCAVKQAVEDGELKQYRYDHYVEFMTEIKDRKPRY | not soluble
GVKCEPFEHLVIDTPQDFSGAIIERLGKRKAEMKAMNPMSDGYTRLEFEIPARGLIGYRSEFLTDTKGEGVMNHSFLEFRPFSGSVESRKNGALISMENGEATAFSLFNIQERGTLFINPQTKVYVGMV | not soluble
QDFAEIYARFSDERANEQANRCSQCGVPFCQVHCPVSNNIPDWLKLTSEGRLEEAYEVSQATNNFPEICGRICPQDRLCEGNCVIEQSTHGAVTIGSVEKYINDTAWDQGWVKPRTPSRELGLSVGVIGAGPAGLAAAEELRAKGYEVHVYDRYDRMGGLLVYGIPGFKLEKSVVERRVKLLADAGVIYHPNFEVGRDASLPELRRKHVAVLVATGVYKARDIKAPGSGLGNIVAALDYLTTSNKVSLGDTVEAYENGSLNAAGKHVVVLGGGDTAMDCVRTAIRQGATSVKCLYRRDRKNMPGSQREVAHAEEEGVEFIWQAAPEGFTGDTVVTGVRAVRIHLGVADATGRQTPQVIEGSEFTVQADLVIKALGFEPEDLPNAFDEPELKVTRWGTLLVDHRTKMTNMDGVFAAGDIVRGASLVVWAIRDGRDAAEGIHAYAKAKAEAPVAVAAE | soluble
NEVDDMDTSDTQWGWFYLAECGKWHMFQPDTNSQCSVSSEDIEKSFKTNPCGSISFTTSKFSYKIDFAEMKQMNLTTGKQRLIKRAPFS | soluble
SMVSPREKQQTNSKGSSNFCVKNIKQAEFGRREIEIAEQDMSALISLRKRAQGEKPLAGAKIVGCTHITAQTAVLIETLCALGAQCRWSACNIYSTQNEVAAALAEAGVAVFAWKGESEDDFWWCIDRCVNMDGWQANMILDDGGDLTHWVYKKYPNVFKKIRGIVEESVTGVHRLYQLSKAGKLCVPAMNVNDSVTKQKFDNLYCCRESILDGLKRTTDVMFGGKQVVVCGYGEVGKGCCAALKALGAIVYITEIDPICALQACMDGFRVVKLNEVIRQVDVVITCTGNKNVVTREHLDRMKNSCIVCNMGHSNTEIDVTSLRTPELTWERVRSQVDHVIWPDGKRVVLLAEGRLLNLSCSTVPTFVLSITATTQALALIELYNAPEGRYKQDVYLLPKKMDEYVASLHLPSFDAHLTELADDQAKYLGLNKNGPFKPNYYRY | soluble
MSKALASDEKDDWITHLKAISNVFTQVCTLSASEESAKKLAIKEREECLQELVELRAIAEAHDDVIQQFHLLLAANHQGDATSRQIFNDMKQEVGDNMERIQEHRLVEAKLNVEKRRNERMAKHINEVSKKSVMHLMATRFYARELAAMRQMMDLVRNAATIESAVKSKLWDEIEKENRLLRLNTLWLINRINSSDLGDAAFENGDDWQSSPRLVILMREHINQGLGLEITGGCDQFRPVVVTGKLKRSMADDDQLRVNDRILAIDGTFVTNTTTHAEVMEMLENESAKDFISLIVSQFDPTKYHEAHPNGKCHKFVSTPISGKADSGEDV | not soluble
MNWKQEFSRWLSYAELDAELKEQLENMKQDEKKIEDSFYKNLEFGTGGMRGELGAGTNRLNVYTVRKATQGLAKFIEKLGEEAKKRGVVVAYDSRHKSPEFAMEVAATLGAHGITTYVFESLRPTPVLSFAVRHLHTVSGIVLTASHNPPEYNGYKVYGEDGGQLPPKEADELISYVNAVEDELTVEVADVEQLKADGLLHMIGQEVDDAYAAELNNVIINKEMVQKVGKDLKIVFTPLHGTSNLSVRRGLAEVGFTDVTVVKEQELPDPNFSTVKSPNPEEHAAFEYAIRDGEKVGADVLIATDPDADRLGVAVRNHDGEFQVLTGNQTGALMLDYLLSQKKENGTLPENGVVLKTIVTSEIGRTIAKAYGLDTVDTLTGFKFIGEKIKQYEESGQYEFQFGYEESYGYLIRPFCRDKDAVQSVLFACEVAAYYKSQGKTLYDGLLEVFEKYGFFREDLVSLTLKGKDGAEQIQEMMATFRENPPKEVAGLTVVAVEDYKASIITSLQDGHKEEIHLPKSNVLKYQLEDGSWFCLRPSGTEPKIKFYFGVQDNSLQNSEQKLLTIKEDIMNRL | not soluble
MADAAKNALSSIFDKTKDVLSTAADATKGYASQAQQAIGKIIPGANHESDPNAAVAAAQAASGQPVDTTGGVPPAQ | not soluble
